From publication PMC7949025, “Biophysical characterization of the ETV6 PNT domain polymerization interfaces” (The Journal of Biological Chemistry, 2021)

T1: biotinylated V112E-PNT domain (ETV6 residues 43-135, V112E, with Avitag) (human, UniProt P41212 43-135, V112E, biotin on the Avitag (~50 to 95% biotinylated))
T1 construct: ETV6, human, residues 43-135 of V112E ETV6; also called biotinylated V112E-PNT domain ligand; V112E-PNT domain ligand; source: E. coli BL21 (λDE3) co-transformed with pET21a-BirA, purified (Ni-NTA, thrombin cleavage); not shown: His6, N-terminal, cleaved; Avitag, N-terminal, kept
T1 sequence (looked up): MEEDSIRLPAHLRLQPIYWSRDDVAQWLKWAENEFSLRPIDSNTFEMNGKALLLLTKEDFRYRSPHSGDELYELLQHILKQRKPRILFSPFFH

B1: V112A-A93D-PNT domain (domain or fragment, human, UniProt P41212 40-125, looked up)
chain: ALRMEEDSIRLPAHLRLQPIYWSRDDVAQWLKWAENEFSLRPIDSNTFEMNGKDLLLLTKEDFRYRSPHSGDALYELLQHILKQRK
notes: ETV6 PNT domain, human; source: E. coli BL21 (λDE3), purified (Ni-NTA, thrombin cleavage); not shown: His6, N-terminal, cleaved
B2: E76A-A93D-PNT domain (domain or fragment, human, UniProt P41212 40-125, looked up)
chain: ALRMEEDSIRLPAHLRLQPIYWSRDDVAQWLKWAENAFSLRPIDSNTFEMNGKDLLLLTKEDFRYRSPHSGDVLYELLQHILKQRK
notes: as for B1
B3: R103A-A93D-PNT domain (domain or fragment, human, UniProt P41212 40-125, looked up)
chain: ALRMEEDSIRLPAHLRLQPIYWSRDDVAQWLKWAENEFSLRPIDSNTFEMNGKDLLLLTKEDFAYRSPHSGDVLYELLQHILKQRK
notes: as for B1
B4: H108A-A93D-PNT domain (domain or fragment, human, UniProt P41212 40-125, looked up)
chain: ALRMEEDSIRLPAHLRLQPIYWSRDDVAQWLKWAENEFSLRPIDSNTFEMNGKDLLLLTKEDFRYRSPASGDVLYELLQHILKQRK
notes: as for B1
B5: S47A-A93D-PNT domain (domain or fragment, human, UniProt P41212 40-125, looked up)
chain: ALRMEEDAIRLPAHLRLQPIYWSRDDVAQWLKWAENEFSLRPIDSNTFEMNGKDLLLLTKEDFRYRSPHSGDVLYELLQHILKQRK
notes: as for B1
B6: P107A-A93D-PNT domain (domain or fragment, human, UniProt P41212 40-125, looked up)
chain: ALRMEEDSIRLPAHLRLQPIYWSRDDVAQWLKWAENEFSLRPIDSNTFEMNGKDLLLLTKEDFRYRSAHSGDVLYELLQHILKQRK
notes: as for B1
B7: E100A-A93D-PNT domain (domain or fragment, human, UniProt P41212 40-125, looked up)
chain: ALRMEEDSIRLPAHLRLQPIYWSRDDVAQWLKWAENEFSLRPIDSNTFEMNGKDLLLLTKADFRYRSPHSGDVLYELLQHILKQRK
notes: as for B1
B8: Y114A-A93D-PNT domain (domain or fragment, human, UniProt P41212 40-125, looked up)
chain: ALRMEEDSIRLPAHLRLQPIYWSRDDVAQWLKWAENEFSLRPIDSNTFEMNGKDLLLLTKEDFRYRSPHSGDVLAELLQHILKQRK
notes: as for B1
B9: E115A-A93D-PNT domain (domain or fragment, human, UniProt P41212 40-125, looked up)
chain: ALRMEEDSIRLPAHLRLQPIYWSRDDVAQWLKWAENEFSLRPIDSNTFEMNGKDLLLLTKEDFRYRSPHSGDVLYALLQHILKQRK
notes: as for B1
B10: F77A-A93D-PNT domain (domain or fragment, human, UniProt P41212 40-125, looked up)
chain: ALRMEEDSIRLPAHLRLQPIYWSRDDVAQWLKWAENEASLRPIDSNTFEMNGKDLLLLTKEDFRYRSPHSGDVLYELLQHILKQRK
notes: as for B1
B11: S78A-A93D-PNT domain (domain or fragment, human, UniProt P41212 40-125, looked up)
chain: ALRMEEDSIRLPAHLRLQPIYWSRDDVAQWLKWAENEFALRPIDSNTFEMNGKDLLLLTKEDFRYRSPHSGDVLYELLQHILKQRK
notes: as for B1
B12: L116A-A93D-PNT domain (domain or fragment, human, UniProt P41212 40-125, looked up)
chain: ALRMEEDSIRLPAHLRLQPIYWSRDDVAQWLKWAENEFSLRPIDSNTFEMNGKDLLLLTKEDFRYRSPHSGDVLYEALQHILKQRK
notes: ETV6 PNT domain, human; gene purchased commercially (Biomatik); source: E. coli BL21 (λDE3), purified (Ni-NTA, thrombin cleavage); not shown: His6, N-terminal, cleaved
B13: D111A-A93D-PNT domain (domain or fragment, human, UniProt P41212 40-125, looked up)
chain: ALRMEEDSIRLPAHLRLQPIYWSRDDVAQWLKWAENEFSLRPIDSNTFEMNGKDLLLLTKEDFRYRSPHSGAVLYELLQHILKQRK
notes: as for B1
B14: L79A-A93D-PNT domain (domain or fragment, human, UniProt P41212 40-125, looked up)
chain: ALRMEEDSIRLPAHLRLQPIYWSRDDVAQWLKWAENEFSARPIDSNTFEMNGKDLLLLTKEDFRYRSPHSGDVLYELLQHILKQRK
notes: as for B1

The binders below were run against T1, biotinylated V112E-PNT domain (ETV6 …) (assay: SPR; biotinylated V112E-PNT domain ligand captured on streptavidin Sensor Chip SA, PNT domain analytes flowed; Biacore X100, 25 °C, HBS-EP+ (10 mM HEPES, 150 mM NaCl, 3 mM EDTA, 0.05% v/v Tween-20, pH 7.4); analyte 0.2-60 nM, re-run at 20-6000 nM if KD > 60 nM). Settings: both partners purified.
How it was run: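 ETV6 PNT domain (residues 43-135), biotinylated through an Avitag, was diluted to 50 μg/ml in HBS-EP+ and captured on a streptavidin Sensor Chip SA in a Biacore X100 run at 25 °C. PNT domain analytes were passed over the chip at 0.2, 2, 20, 40 and 60 nM, or at 20-6000 nM in repeat runs where binding was weaker. Between cycles the chip was regenerated with 0.2% SDS for 30 s. The Biacore kinetics/affinity software wizard gave the association and dissociation rate constants and the equilibrium dissociation constant.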

Binder	Kd [nM]	koff [s⁻¹]	kon [M⁻¹ s⁻¹]
B1	550	0.011	20000
B2	9.9	0.0062	620000
B3	21	0.0054	250000
B4	5.4	0.0014	260000
B5	6.9	0.0014	210000
B6	8.1	0.0021	260000
B7	5	0.0015	310000
B8	130	0.0045	35000
B9	11	0.0025	230000
B10	450	0.015	34000
B11	3.3	0.0093	2.8e+06
B12	3.3	0.00076	230000
B13	420	0.0014	3300
B14	200	0.0016	8100
